Measured values taken from US10513713B2, “Modified host cells having tolerance to α-olefins” (priority 2014, dated 2019).
≈ marks a conversion by molar mass, not a printed value.

Assays:
Type in all cases: cell-based
E. coli K12 wild type = assay: Survival test in 1-hexene saturated atmosphere on over-production of AcrA, AcrB and TolC; settings: FIG. 3
Protocol: Six different dilutions of cultures (10 cells to 10^7 cells, left to right on the picture) were spotted in triplicate on an agar plate.
For agar plate based assays, cells were first streaked overnight and few colonies were used to inoculate a preculture of 6 mL of LB-Cm with glucose (2 g/L) and arabinose (5 mM). At OD60=1 at 37° C., the cultures were used to prepare a dilution series. Dilution 0 (D0) corresponds to the OD600, =1, and contains ˜10^9 cells/mL. Dilution 1 (D1) is a 10-fold dilution of D0, dilution 2 (D2) a 10-fold dilution of D1 up to dilution 5 (D5), which contains ˜10^4 cells/mL. 10 μL of each dilution was spotted in triplicate on LB-agar plates (single well plates, Thermo Scientific, Waltham, Mass.) containing 30 mL of LB-agar, Cm (30 mg/L), glucose (2 g/L) and arabinose (5 mM). […] The agar plates were then inverted over the lid, cells facing the olefin compound, sealed with parafilm, placed in the plastic bag (the original packaging for the petri dishes) and incubated for 2 days at room temperature. For 1-octene, a second condition, via overlaying 2 mL of compound on the top of the agar submerging the cells, was used. TolC overexpression impact was examined using the same method, but in this case, the LB media and the LB-agar were also supplemented with ampicillin (100 mg/L) and IPTG (100 μM).

E. coli K12 = assay: microbe, parasite or virus in culture; settings: Escherichia coli, K12, 2 h, read-out: toxic dose (concentration of compound that decreased growth by half)
Protocol: A: The olefin compounds were added to different concentrations as indicated to an E. coli K12 culture at an OD600=0.2. OD was monitored after 2 hour at 37° C. The bars represent standard deviation between duplicates B: A survival test in presence of 1-octene was performed. Six different dilutions of a culture (10 cells to 10^7 cells, left to right) of E. coli K12 were spotted in triplicate on an agar plate. […] Plates were incubated at room temperature for 2 days and then opened to allow evaporation of the olefin.
In this example, toxicity of olefin compounds was evaluated. A toxic dose was defined as the concentration of compound that decreased growth by half.

E. coli K12 ΔacrAB = assay: Survival assay on agar plate in olefin saturated atmosphere, strains producing AcrAB or AcrB variants; settings: 1-hexene saturated atmosphere; for tolerance to 1-hexene relative to wild type AcrB sequence: single mutation AcrB variants, FIG. 4A
Protocol: FIG. 2: impact of AcrAB production on growth, in presence of styrene 1-hexene, 1-octene and 1-nonene on cell growth. A: Different concentrations of styrene were added to an OD600=0.2 culture of E. coli K12 ΔacrAB containing the pABc (white) or the control plasmid p0c (black). OD density was monitored after 2 hours of growth at 37° C. The bars represent standard deviation between duplicates. B: A survival test in presence of 1-hexene, 1-octene, or 1-nonene saturated atmosphere was performed. Six different dilutions of cultures (10 cells to 10^7 cells, left to right on the figure) were spotted in triplicate on an agar plates. Plates were then exposed to the aforementioned chemicals.
FIG. 4: Impact of beneficial mutations on AcrB on tolerance to 1-hexene, A: Survival test of E. coli strain producing either the AcrB wild type or variants in a 1-hexene saturated atmosphere was performed. Two dilutions of cultures (Dilution 1: 10^5 cells and Dilution 2: 10^4 cells) were spotted in triplicate on an agar plate. B: Localization of the 6 beneficial mutations represented on the structure of a single monomer of AcrB or C: on the structure of the AcrB trimer.
FIG. 6: Impact of beneficial mutations on AcrB on tolerance to 1-hexene. A: Survival test of E. coli strain producing either the AcrB Wild type or variants with 1, 2 or several beneficial mutations, in an 1-hexene saturated atmosphere was performed. Two dilutions of cultures (Dilution 2: 10^4 cells and Dilution 3: 10^3 cells) were spotted in triplicate on an agar plate. B: Soluble fraction of total proteins from a culture of strains producing either the wild type, either the variant F617L, either the variant 6 (A279T, Q584R, F617L) were analyzed by western blot using anti-His antibody.
For agar plate based assays, cells were first streaked overnight and few colonies were used to inoculate a preculture of 6 mL of LB-Cm with glucose (2 g/L) and arabinose (5 mM). At OD60=1 at 37° C., the cultures were used to prepare a dilution series. Dilution 0 (D0) corresponds to the OD600, =1, and contains ˜10^9 cells/mL. Dilution 1 (D1) is a 10-fold dilution of D0, dilution 2 (D2) a 10-fold dilution of D1 up to dilution 5 (D5), which contains ˜10^4 cells/mL. 10 μL of each dilution was spotted in triplicate on LB-agar plates (single well plates, Thermo Scientific, Waltham, Mass.) containing 30 mL of LB-agar, Cm (30 mg/L), glucose (2 g/L) and arabinose (5 mM). Small containers (microfuge tube lids) were placed on the open lid of the agar plate and filled with 400 to 600 μL of 1-hexene or 1-octene or with 75 μL of 1-nonene. The agar plates were then inverted over the lid, cells facing the olefin compound, sealed with parafilm, placed in the plastic bag (the original packaging for the petri dishes) and incubated for 2 days at room temperature. For 1-octene, a second condition, via overlaying 2 mL of compound on the top of the agar submerging the cells, was used. TolC overexpression impact was examined using the same method, but in this case, the LB media and the LB-agar were also supplemented with ampicillin (100 mg/L) and IPTG (100 μM). […]

acrA and acrB and TolC: E. coli tripartite RND efflux pump AcrAB-TolC, over-expressed from pABc and pTolCa
tolerance to 1-hexene on over-expression in the wild type strain (E. coli K12 wild type): increased tolerance

C=Cc1ccccc1 [styrene]
IC50 (E. coli K12): 110 µg/mL (≈ 1060 µM)

C=CCCCC [1-hexene]
IC50 (E. coli K12): 65 µg/mL (≈ 772 µM)

B1: TolC: outer membrane protein TolC encoded on plasmid pTolCa (protein, UniProt P02930 23-493, looked up)
Outer membrane protein TolC: ENLMQVYQQARLSNPELRKSAADRDAAFEKINEARSPLLPQLGLGADYTYSNGYRDANGINSNATSASLQLTQSIFDMSKWRALTLQEKAAGIQDVTYQTDQQTLILNTATAYFNVLNAIDVLSYTQAQKEAIYRQLDQTTQRFNVGLVAITDVQNARAQYDTVLANEVTARNNLDNAVEQLRQITGNYYPELAALNVENFKTDKPQPVNALLKEAEKRNLSLLQARLSQDLAREQIRQAQDGHLPTLDLTASTGISDTSYSGSKTRGAAGTQYDDSNMGQNKVGLSFSLPIYQGGMVNSQVKQAQYNFVGASEQLESAHRSVVQTVRSSFNNINASISSINAYKQAVVSAQSSLDAMEAGYSVGTRTIVDVLDATTTLYNAKQELANARYNYLINQLNIKSALGTLNEQDLLALNNALSKPVSTNPENVAPQTPEQNAIADGYAPDSPAPVVQQTSARTTTSNGHNPFRN
tolerance to 1-hexene on over-expression in the wild type strain (E. coli K12 wild type): does not improve the survival

B2: L822P: E. coli AcrB (SEQ ID NO:1) variant with amino acid mutation L822P (protein)
chain: MPNFFIDRPIFAWVIAIIIMLAGGLAILKLPVAQYPTIAPPAVTISASYPGADAKTVQDTVTQVIEQNMNGIDNLMYMSSNSDSTGTVQITLTFESGTDADIAQVQVQNKLQLAMPLLPQEVQQQGVSVEKSSSSFLMVVGVINTDGTMTQEDISDYVAANMKDAISRTSGVGDVQLFGSQYAMRIWMNPNELNKFQLTPVDVITAIKAQNAQVAAGQLGGTPPVKGQQLNASIIAQTRLTSTEEFGKILLKVNQDGSRVLLRDVAKIELGGENYDIIAEFNGQPASGLGIKLATGANALDTAAAIRAELAKMEPFFPSGLKIVYPYDTTPFVKISIHEVVKTLVEAIILVFLVMYLFLQNFRATLIPTIAVPVVLLGTFAVLAAFGFSINTLTMFGMVLAIGLLVDDAIVVVENVERVMAEEGLPPKEATRKSMGQIQGALVGIAMVLSAVFVPMAFFGGSTGAIYRQFSITIVSAMALSVLVALILTPALCATMLKPIAKGDHGEGKKGFFGWFNRMFEKSTHHYTDSVGGILRSTGRYLVLYLIIVVGMAYLFVRLPSSFLPDEDQGVFMTMVQLPAGATQERTQKVLNEVTHYYLTKEKNNVESVFAVNGFGFAGRGQNTGIAFVSLKDWADRPGEENKVEAITMRATRAFSQIKDAMVFAFNLPAIVELGTATGFDFELIDQAGLGHEKLTQARNQLLAEAAKHPDMLTSVRPNGLEDTPQFKIDIDQEKAQALGVSINDINTTLGAAWGGSYVNDFIDRGRVKKVYVMSEAKYRMLPDDIGDWYVRAADGQMVPFSAFSSSRWEYGSPRLERYNGPPSMEILGQAAPGKSTGEAMELMEQLASKLPTGVGYDWTGMSYQERLSGNQAPSLYAISLIVVFLCLAALYESWSIPFSVMLVVPLGVIGALLAATFRGLTNDVYFQVGLLTTIGLSAKNAILIVEFAKDLMDKEGKGLIEATLDAVRMRLRPILMTSLAFILGVMPLVISTGAGSGAQNAVGTGVMGGMVTATVLAIFFVPVFFVVVRRRFSRKNEDIEHSHTVDHH
modifications: E. coli
efficiency among the beneficial mutations (E. coli K12 ΔacrAB): more efficient
tolerance to 1-hexene relative to wild type AcrB sequence (E. coli K12 ΔacrAB): improvement in tolerance

B3: F927S: E. coli AcrB (SEQ ID NO:1) variant with amino acid mutation F927S (protein)
chain: MPNFFIDRPIFAWVIAIIIMLAGGLAILKLPVAQYPTIAPPAVTISASYPGADAKTVQDTVTQVIEQNMNGIDNLMYMSSNSDSTGTVQITLTFESGTDADIAQVQVQNKLQLAMPLLPQEVQQQGVSVEKSSSSFLMVVGVINTDGTMTQEDISDYVAANMKDAISRTSGVGDVQLFGSQYAMRIWMNPNELNKFQLTPVDVITAIKAQNAQVAAGQLGGTPPVKGQQLNASIIAQTRLTSTEEFGKILLKVNQDGSRVLLRDVAKIELGGENYDIIAEFNGQPASGLGIKLATGANALDTAAAIRAELAKMEPFFPSGLKIVYPYDTTPFVKISIHEVVKTLVEAIILVFLVMYLFLQNFRATLIPTIAVPVVLLGTFAVLAAFGFSINTLTMFGMVLAIGLLVDDAIVVVENVERVMAEEGLPPKEATRKSMGQIQGALVGIAMVLSAVFVPMAFFGGSTGAIYRQFSITIVSAMALSVLVALILTPALCATMLKPIAKGDHGEGKKGFFGWFNRMFEKSTHHYTDSVGGILRSTGRYLVLYLIIVVGMAYLFVRLPSSFLPDEDQGVFMTMVQLPAGATQERTQKVLNEVTHYYLTKEKNNVESVFAVNGFGFAGRGQNTGIAFVSLKDWADRPGEENKVEAITMRATRAFSQIKDAMVFAFNLPAIVELGTATGFDFELIDQAGLGHEKLTQARNQLLAEAAKHPDMLTSVRPNGLEDTPQFKIDIDQEKAQALGVSINDINTTLGAAWGGSYVNDFIDRGRVKKVYVMSEAKYRMLPDDIGDWYVRAADGQMVPFSAFSSSRWEYGSPRLERYNGLPSMEILGQAAPGKSTGEAMELMEQLASKLPTGVGYDWTGMSYQERLSGNQAPSLYAISLIVVFLCLAALYESWSIPFSVMLVVPLGVIGALLAATFRGLTNDVYSQVGLLTTIGLSAKNAILIVEFAKDLMDKEGKGLIEATLDAVRMRLRPILMTSLAFILGVMPLVISTGAGSGAQNAVGTGVMGGMVTATVLAIFFVPVFFVVVRRRFSRKNEDIEHSHTVDHH
modifications: E. coli
tolerance to 1-hexene relative to wild type AcrB sequence (E. coli K12 ΔacrAB): improvement in tolerance

B4: F1033Y: E. coli AcrB (SEQ ID NO:1) variant with amino acid mutation F1033Y (protein)
chain: MPNFFIDRPIFAWVIAIIIMLAGGLAILKLPVAQYPTIAPPAVTISASYPGADAKTVQDTVTQVIEQNMNGIDNLMYMSSNSDSTGTVQITLTFESGTDADIAQVQVQNKLQLAMPLLPQEVQQQGVSVEKSSSSFLMVVGVINTDGTMTQEDISDYVAANMKDAISRTSGVGDVQLFGSQYAMRIWMNPNELNKFQLTPVDVITAIKAQNAQVAAGQLGGTPPVKGQQLNASIIAQTRLTSTEEFGKILLKVNQDGSRVLLRDVAKIELGGENYDIIAEFNGQPASGLGIKLATGANALDTAAAIRAELAKMEPFFPSGLKIVYPYDTTPFVKISIHEVVKTLVEAIILVFLVMYLFLQNFRATLIPTIAVPVVLLGTFAVLAAFGFSINTLTMFGMVLAIGLLVDDAIVVVENVERVMAEEGLPPKEATRKSMGQIQGALVGIAMVLSAVFVPMAFFGGSTGAIYRQFSITIVSAMALSVLVALILTPALCATMLKPIAKGDHGEGKKGFFGWFNRMFEKSTHHYTDSVGGILRSTGRYLVLYLIIVVGMAYLFVRLPSSFLPDEDQGVFMTMVQLPAGATQERTQKVLNEVTHYYLTKEKNNVESVFAVNGFGFAGRGQNTGIAFVSLKDWADRPGEENKVEAITMRATRAFSQIKDAMVFAFNLPAIVELGTATGFDFELIDQAGLGHEKLTQARNQLLAEAAKHPDMLTSVRPNGLEDTPQFKIDIDQEKAQALGVSINDINTTLGAAWGGSYVNDFIDRGRVKKVYVMSEAKYRMLPDDIGDWYVRAADGQMVPFSAFSSSRWEYGSPRLERYNGLPSMEILGQAAPGKSTGEAMELMEQLASKLPTGVGYDWTGMSYQERLSGNQAPSLYAISLIVVFLCLAALYESWSIPFSVMLVVPLGVIGALLAATFRGLTNDVYFQVGLLTTIGLSAKNAILIVEFAKDLMDKEGKGLIEATLDAVRMRLRPILMTSLAFILGVMPLVISTGAGSGAQNAVGTGVMGGMVTATVLAIFFVPVFFVVVRRRYSRKNEDIEHSHTVDHH
modifications: E. coli
tolerance to 1-hexene relative to wild type AcrB sequence (E. coli K12 ΔacrAB): improvement in tolerance
